Reference: patent publication US20240174727A1, “LONG-ACTING NATRIURETIC PEPTIDES AND USES THEREOF” (Eli Lilly and Company, priority 2022, published 2024)
Numbered stars: 1 amine (or outer) side, 2 acyl side, 3 side chain; on linkers, the order of the positions; unused ones are H or OH. Bridge positions count the residues as written; N and C are the ends. Square brackets hold non-standard residues; d marks the D form. * marks the point of attachment. thioacetal = thioacetal linkage between two cysteines (intrachain bond at the bracketed Cys); C20 diacid = O=C(O)CCCCCCCCCCCCCCCCCCC(=O)*; γGlu = O=C(O)[C@H](CCC(=O)[*:2])N[*:1]; Orn = NCCC[C@H](N)C(=O)O; Dap = NC[C@H](N)C(=O)O; βAla = NCCC(=O)O

Experiments:
rat NPRA = molecular target: T1, rat NPRA (rat, UniProt P18910 29-1057); experiment: cell-based or functional assay
T1 sequence (looked up): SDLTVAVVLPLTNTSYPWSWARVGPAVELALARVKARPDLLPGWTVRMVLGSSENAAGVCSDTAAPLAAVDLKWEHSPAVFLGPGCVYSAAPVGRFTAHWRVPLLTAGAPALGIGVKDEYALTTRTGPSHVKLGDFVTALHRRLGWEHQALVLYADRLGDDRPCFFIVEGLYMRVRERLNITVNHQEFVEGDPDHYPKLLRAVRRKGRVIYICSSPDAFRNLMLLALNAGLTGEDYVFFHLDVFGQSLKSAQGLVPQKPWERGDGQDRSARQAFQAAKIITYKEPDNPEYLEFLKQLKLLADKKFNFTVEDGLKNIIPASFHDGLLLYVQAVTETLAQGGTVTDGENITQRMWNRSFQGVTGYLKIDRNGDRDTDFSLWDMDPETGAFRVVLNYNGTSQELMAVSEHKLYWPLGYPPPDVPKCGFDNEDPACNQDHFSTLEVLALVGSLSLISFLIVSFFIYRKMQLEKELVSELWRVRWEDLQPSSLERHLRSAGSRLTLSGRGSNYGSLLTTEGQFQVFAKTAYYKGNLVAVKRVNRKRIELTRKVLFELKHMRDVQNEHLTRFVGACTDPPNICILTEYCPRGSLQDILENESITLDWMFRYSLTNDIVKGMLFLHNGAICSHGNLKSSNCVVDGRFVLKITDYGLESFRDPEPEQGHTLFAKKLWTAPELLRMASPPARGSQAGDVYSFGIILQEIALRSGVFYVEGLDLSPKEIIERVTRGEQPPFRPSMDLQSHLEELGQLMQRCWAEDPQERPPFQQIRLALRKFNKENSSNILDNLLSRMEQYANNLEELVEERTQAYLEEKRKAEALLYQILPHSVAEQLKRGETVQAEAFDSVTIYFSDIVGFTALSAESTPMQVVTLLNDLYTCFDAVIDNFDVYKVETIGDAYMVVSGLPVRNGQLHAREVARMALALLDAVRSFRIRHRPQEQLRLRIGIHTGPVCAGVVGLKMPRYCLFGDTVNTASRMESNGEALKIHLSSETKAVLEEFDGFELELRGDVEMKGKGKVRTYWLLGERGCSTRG

human NPRA = molecular target: T2, human NPRA (human, UniProt P16066 33-1061); experiment: cell-based or functional assay
T2 sequence (looked up): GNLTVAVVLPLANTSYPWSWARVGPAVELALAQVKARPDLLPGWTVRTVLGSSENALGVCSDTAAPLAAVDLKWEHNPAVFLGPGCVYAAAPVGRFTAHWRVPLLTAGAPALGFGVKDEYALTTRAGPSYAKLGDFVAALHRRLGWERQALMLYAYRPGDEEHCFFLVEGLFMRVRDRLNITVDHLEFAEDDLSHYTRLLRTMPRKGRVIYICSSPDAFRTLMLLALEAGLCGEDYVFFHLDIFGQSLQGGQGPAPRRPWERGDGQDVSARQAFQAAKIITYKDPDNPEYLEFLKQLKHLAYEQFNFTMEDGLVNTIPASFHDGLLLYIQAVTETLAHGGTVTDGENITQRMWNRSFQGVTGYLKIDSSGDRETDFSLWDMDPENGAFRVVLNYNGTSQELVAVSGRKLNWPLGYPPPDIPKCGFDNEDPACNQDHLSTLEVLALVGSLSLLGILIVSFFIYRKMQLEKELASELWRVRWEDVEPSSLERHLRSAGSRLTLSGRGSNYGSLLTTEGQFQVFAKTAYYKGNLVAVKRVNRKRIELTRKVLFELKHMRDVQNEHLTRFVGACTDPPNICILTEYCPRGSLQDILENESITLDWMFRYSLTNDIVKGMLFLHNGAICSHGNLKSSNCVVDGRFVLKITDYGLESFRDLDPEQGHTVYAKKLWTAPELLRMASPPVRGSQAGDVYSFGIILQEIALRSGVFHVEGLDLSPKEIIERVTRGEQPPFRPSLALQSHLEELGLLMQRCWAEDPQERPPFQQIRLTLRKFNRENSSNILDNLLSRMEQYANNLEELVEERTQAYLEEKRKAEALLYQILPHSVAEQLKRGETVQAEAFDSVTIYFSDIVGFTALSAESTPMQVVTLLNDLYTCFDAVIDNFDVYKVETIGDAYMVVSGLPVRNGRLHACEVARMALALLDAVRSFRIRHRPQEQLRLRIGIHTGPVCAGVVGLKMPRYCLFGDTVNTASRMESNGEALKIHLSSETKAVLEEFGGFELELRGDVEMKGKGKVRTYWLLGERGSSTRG

{C20 diacid-γGlu}-EKEKEKGEKPRSSCFGKRIDRIGHQSGLGCPSFRHGSPSSGAPPPS-NH2 (bridge 14-30 via thioacetal) [HOOC-(CH2)18-CO-(γGlu)-EKEKEKGEKPRSS[CFGKRIDRIGHQSGLGC]PSFRHGSPSSGAPPPS-NH2]
cGMP Assay (EC50, pM) w/BSA, rNPRA (rat NPRA): 341000 pM | cGMP Assay (EC50, pM) w/Casein, rNPRA (rat NPRA): 2020 pM | cGMP Assay (EC50, pM) w/BSA, hNPRA (human NPRA): 41500 pM | cGMP Assay (EC50, pM) w/Casein, hNPRA (human NPRA): 703 pM

B1: HOOC-(CH2)18-CO-(γGlu)-EKEKEKG-(AEEA)6-S-4Pal-RRSS[CFGKRIDRIGHYSGLGC]PSFRHGSGSPSSGAPPPSG-NH2 (peptide)
peptide: SXRRSSCFGKRIDRIGHYSGLGCPSFRHGSGSPSSGAPPPSG
modifications: N-terminus acylated with HOOC-(CH2)18-CO-(γGlu)-; (AEEA)6 after EKEKEKG; 4Pal; thioacetal linkage between the two bracketed Cys; C-terminal amide
cGMP Assay (EC50, pM) w/BSA, rNPRA (rat NPRA): 200000 pM | cGMP Assay (EC50, pM) w/Casein, rNPRA (rat NPRA): 6040 pM | cGMP Assay (EC50, pM) w/BSA, hNPRA (human NPRA): 9170 pM | cGMP Assay (EC50, pM) w/Casein, hNPRA (human NPRA): 922 pM

{C20 diacid}-[γGlu]EKEKEKGEK[βAla]RSSCFGKRIDRIGHYSGLGCPSFRHGSPSSGAPPPS-NH2 (bridge 15-31 via thioacetal) [HOOC-(CH2)18-CO-(γGlu)-EKEKEKGEK-βAla-RSS[CFGKRIDRIGHYSGLGC]PSFRHGSPSSGAPPPS-NH2]
cGMP Assay (EC50, pM) w/BSA, rNPRA (rat NPRA): 498000 pM | cGMP Assay (EC50, pM) w/Casein, rNPRA (rat NPRA): 2010 pM | cGMP Assay (EC50, pM) w/BSA, hNPRA (human NPRA): 23700 pM | cGMP Assay (EC50, pM) w/Casein, hNPRA (human NPRA): 566 pM

B2: HOOC-(CH2)18-CO-(γGlu)-EKEKEKG-(AEEA)6-EKPRSS[CFGKRIDRIGHYSGLGC]PSFRHSGSPSSGAPPPSG-NH2 (peptide)
peptide: EKPRSSCFGKRIDRIGHYSGLGCPSFRHSGSPSSGAPPPSG
modifications: N-terminus acylated with HOOC-(CH2)18-CO-(γGlu)-; (AEEA)6 after EKEKEKG; thioacetal linkage between the two bracketed Cys; C-terminal amide
cGMP Assay (EC50, pM) w/BSA, rNPRA (rat NPRA): 205000 pM | cGMP Assay (EC50, pM) w/Casein, rNPRA (rat NPRA): 3830 pM | cGMP Assay (EC50, pM) w/BSA, hNPRA (human NPRA): 8970 pM | cGMP Assay (EC50, pM) w/Casein, hNPRA (human NPRA): 745 pM

B3: HOOC-(CH2)18-CO-(γGlu)-EKEKEKG-(AEEA)8-EKPRSS[CFGKRIDRIGHYSGLGC]PSFRHSGSPSSGAPPPSG-NH2 (peptide)
peptide: EKPRSSCFGKRIDRIGHYSGLGCPSFRHSGSPSSGAPPPSG
modifications: N-terminus acylated with HOOC-(CH2)18-CO-(γGlu)-; (AEEA)8 after EKEKEKG; thioacetal linkage between the two bracketed Cys; C-terminal amide
cGMP Assay (EC50, pM) w/BSA, rNPRA (rat NPRA): 88500 pM | cGMP Assay (EC50, pM) w/Casein, rNPRA (rat NPRA): 3760 pM | cGMP Assay (EC50, pM) w/BSA, hNPRA (human NPRA): 6370 pM | cGMP Assay (EC50, pM) w/Casein, hNPRA (human NPRA): 1090 pM

B4: HOOC-(CH2)18-CO-(γGlu)-EKEKEKG-PEG24-EKPRSS[CFGKGIDRIGHQSGLGC]PSFRHSGSPSSGAPPPSG-NH2 (peptide)
peptide: EKPRSSCFGKGIDRIGHQSGLGCPSFRHSGSPSSGAPPPSG
modifications: N-terminus acylated with HOOC-(CH2)18-CO-(γGlu)-; PEG24 after EKEKEKG; thioacetal linkage between the two bracketed Cys; C-terminal amide
cGMP Assay (EC50, pM) w/BSA, rNPRA (rat NPRA): 1.45e+06 pM | cGMP Assay (EC50, pM) w/Casein, rNPRA (rat NPRA): 580000 pM | cGMP Assay (EC50, pM) w/BSA, hNPRA (human NPRA): 302000 pM | cGMP Assay (EC50, pM) w/Casein, hNPRA (human NPRA): 38700 pM

B5: HOOC-(CH2)18-CO-(γGlu)-EKEKEKG-PEG24-EKPRSS[CFGKRIDRIGHQSGLGC]PSFRHSGSPSSGAPPPSG-NH2 (peptide)
peptide: EKPRSSCFGKRIDRIGHQSGLGCPSFRHSGSPSSGAPPPSG
modifications: N-terminus acylated with HOOC-(CH2)18-CO-(γGlu)-; PEG24 after EKEKEKG; thioacetal linkage between the two bracketed Cys; C-terminal amide
cGMP Assay (EC50, pM) w/BSA, rNPRA (rat NPRA): 260000 pM | cGMP Assay (EC50, pM) w/Casein, rNPRA (rat NPRA): 9390 pM | cGMP Assay (EC50, pM) w/BSA, hNPRA (human NPRA): 5300 pM | cGMP Assay (EC50, pM) w/Casein, hNPRA (human NPRA): 704 pM

B6: HOOC-(CH2)18-CO-(γGlu)-EKEKEKG-PEG24-EKPRSS[CFGKRIDRIGHYSGLGC]PSFRHSGSPSSGAPPPSG-NH2 (peptide)
peptide: EKPRSSCFGKRIDRIGHYSGLGCPSFRHSGSPSSGAPPPSG
modifications: N-terminus acylated with HOOC-(CH2)18-CO-(γGlu)-; PEG24 after EKEKEKG; thioacetal linkage between the two bracketed Cys; C-terminal amide
cGMP Assay (EC50, pM) w/BSA, rNPRA (rat NPRA): 74300 pM | cGMP Assay (EC50, pM) w/Casein, rNPRA (rat NPRA): 4510 pM | cGMP Assay (EC50, pM) w/BSA, hNPRA (human NPRA): 3980 pM | cGMP Assay (EC50, pM) w/Casein, hNPRA (human NPRA): 656 pM

{C20 diacid-γGlu}-EKEKEKGEKPRSSCFGKRIDRIG[Orn]YSGLGCPSFRHGSPSSGAPPPS-NH2 (bridge 14-30 via thioacetal) [HOOC-(CH2)18-CO-(γGlu)-EKEKEKGEKPRSS[CFGKRIDRIG-Orn-YSGLGC]PSFRHGSPSSGAPPPS-NH2]
cGMP Assay (EC50, pM) w/BSA, rNPRA (rat NPRA): 6.52e+06 pM | cGMP Assay (EC50, pM) w/Casein, rNPRA (rat NPRA): 186000 pM | cGMP Assay (EC50, pM) w/BSA, hNPRA (human NPRA): 104000 pM | cGMP Assay (EC50, pM) w/Casein, hNPRA (human NPRA): 497 pM

{C20 diacid-γGlu}-EKEKEKGEKPRSSCFGG[Dap]IDRIGHYSGLGCPSFRHGSPSSGAPPPS-NH2 (bridge 14-30 via thioacetal) [HOOC-(CH2)18-CO-(γGlu)-EKEKEKGEKPRSS[CFGG-Dap-IDRIGHYSGLGC]PSFRHGSPSSGAPPPS-NH2]
cGMP Assay (EC50, pM) w/BSA, rNPRA (rat NPRA): 3.8e+06 pM | cGMP Assay (EC50, pM) w/Casein, rNPRA (rat NPRA): 71700 pM | cGMP Assay (EC50, pM) w/BSA, hNPRA (human NPRA): 1.41e+06 pM | cGMP Assay (EC50, pM) w/Casein, hNPRA (human NPRA): 5350 pM

B7: HOOC-(CH2)18-CO-(γGlu)-EKEKEKG-(AEEA)8-S-4Pal-RRSS[CFGKRIDRIGHYSGLGC]PSFRHGSPSSGAPPPS-NH2 (peptide)
peptide: SXRRSSCFGKRIDRIGHYSGLGCPSFRHGSPSSGAPPPS
modifications: N-terminus acylated with HOOC-(CH2)18-CO-(γGlu)-; (AEEA)8 after EKEKEKG; 4Pal; thioacetal linkage between the two bracketed Cys; C-terminal amide
cGMP Assay (EC50, pM) w/BSA, rNPRA (rat NPRA): 149000 pM | cGMP Assay (EC50, pM) w/Casein, rNPRA (rat NPRA): 3780 pM | cGMP Assay (EC50, pM) w/BSA, hNPRA (human NPRA): 3770 pM | cGMP Assay (EC50, pM) w/Casein, hNPRA (human NPRA): 646 pM
